System: hWAT-SVF and hBAT-SVF progenitors
Test: OCR (Seahorse) in adipocytes from BMP7 pre-treated progenitors
Type: cell-based, human
Conditions: hWAT-SVF from both subjects and hBAT-SVF from Subject 2; 3.3 nM BMP7 pre-exposure 6 days
Description: FIG. 6B depicts OCR assayed using the Seahorse extracellular flux analyzer in differentiated hWA and hBA from Sub1 and Sub2 that were pre-treated with 3.3 nM BMP7 or vehicle (Veh) for 6 days and then differentiation into mature adipocytes. Equal numbers of progenitors were plated and differentiated. Quantification of OCR in the absence (Basal Res.) and presence of oligomycin (Proton Leak) or FCCP (Max. Res.) are shown. Data are presented as mean±s.e.m. (n=10; two-tailed Student's t-test; *P<0.05, **P<0.01, ***P<0.001). A representative experiment from a total of two independent studies is shown. Data are represented in the same order as appeared in the legend. FIGS. 6C and 6D depict measurement of glucose uptake using ^3H 2-Deoxy-Glucose in differentiated hWA and hBA from Sub1 and Sub2 that were pre-treated with 3.3 nM BMP7 or vehicle (Veh) for 6 days and then differentiation into mature adipocytes. […]
To assess mitochondrial respiration, a Seahorse Extracellular Flux Analyzer (Seahorse Bioscience Inc., North Billerica, Mass.) was used to quantify oxygen consumption rates (OCR) of differentiated human white and brown adipocytes. […] After adipogenic induction for 12 days, OCR was analyzed. […] All data were average of four-time points with 10 wells per time point by quantified in bar plots, and error bars are standard error of the mean (s.e.m.). […]

B1: BMP7: Recombinant human BMP7, an inducer of brown adipogenesis (protein, UniProt P18075 293-431, looked up)
Bone morphogenetic protein 7: STGSKQRSQNRSKTPKNQEALRMANVAENSSSDQRQACKKHELYVSFRDLGWQDWIIAPEGYAAYYCEGECAFPLNSYMNATNHAIVQTLVHFINPETVPKPCCAPTQLNAISVLYFDDSSNVILKKYRNMVVRACGCH
mitochondrial activity in mature adipocytes: enhanced
